Where “and” joins values, the source holds several entries; their conditions need not be identical. Equal entries are not always repeated. Where no end group is shown, it is not given here.
B1: Lm GlnR(1-87), His-tag removed (crystallography) (domain or fragment, L. monocytogenes, UniProt L8DSZ4 1-87, looked up)
chain: MSEKEIRRSMPLFPIGPVMKLTDLTARQIRYYEDQGLIHPARNQGNHRLYSLQDIDVLLEIKDYLNDGLNIAGIKKMYQMQQKESKE
notes: GlnR of L. monocytogenes (122 residues), residues 1-87; Dimer on the 21 bp operator DNA, generated by crystallographic symmetry; also called Lm GlnR-DNA complex; source: E. coli C41(DE3), purified (cobalt NTA, thrombin digestion, Ni-NTA); not shown: His-tag, N-terminal, cleaved
B2: Bacillus subtilis TnrA, full length (natural protein, B. subtilis, UniProt Q45666 1-110, looked up)
chain: MTTEDHSYKDKKVISIGIVSELTGLSVRQIRYYEERKLIYPQRSSRGTRKYSFADVERLMDIANKREDGVQTAEILKDMRKKEQMLKNDPQVRKKMLEGQLNAHFRYKNR
notes: TnrA transcription regulator (MerR-like) of B. subtilis; Its production is not described here; also called FL TnrA; Bs TnrA
B3: Bacillus subtilis glutamine synthetase (enzyme, B. subtilis)
chain: MAKYTREDIEKLVKEENVKYIRLQFTDILGTIKNVEIPVSQLGKALDNKVMFDGSSIEGFVRIEESDMYLYPDLNTFVIFPWTAEKGKVARFICDIYNPDGTPFEGDPRNNLKRILKEMEDLGFSDFNLGPEPEFFLFKLDEKGEPTLELNDKGGYFDLAPTDLGENCRRDIVLELEEMGFEIEASHHEVAPGQHEIDFKYAGAVRSCDDIQTFKLVVKTIARKHGLHATFMPKPLFGVNGSGMHCNLSLFKNGVNAFFDENADLQLSETAKHFIAGIVKHATSFTAVTNPTVNSYKRLVPGYEAPCYVAWSAQNRSPLIRIPASRGISTRVEVRSVDPAANPYLALSVLLAAGLDGIKNKLEAPAPIDRNIYVMSKEERMENGIVDLPATLAEALEEFKSNEVMVKALGEHLFEHFIEAKEIEWDMFRTQVHPWEREQYMSQY
notes: glutamine synthetase (GS, class GSI-alpha) of B. subtilis; gene bought from Genscript, in pET15b; Dodecamer as apo protein; tetradecamer (14 copies) in the complexes with TnrA, GlnR and the GlnR C-tail peptide; The His-tag was removed only for crystallography; also called Bs GS; source: E. coli C41(DE3), purified (cobalt NTA); copies: 12
B4: Bs GlnR C-tail peptide (peptide)
peptide: MQAGRFQRGNTFRQGDMSRFFH
notes: C-tail residues of GlnR of B. subtilis; also called Bs GlnR peptide; source: synthetic peptide, bought: Genscript

Assays:
Pp GS = biological target: T1, Pp GS (Paenibacillus polymyxa, UniProt A0A0F0G8G2); assay: X-ray crystal structure […] Å; format: binding; details: formed in situ from 5 mM ATP and 5 mM Met-Sox with 5 mM MgCl2; with Met-Sox-P
T1 construct: gene glnA2; full-length, synthetic gene in pET15b, N-terminal His-tag (removed by thrombin for crystallography), E. coli C41(DE3)
T1 sequence (A0A0F0G8G2 1-442): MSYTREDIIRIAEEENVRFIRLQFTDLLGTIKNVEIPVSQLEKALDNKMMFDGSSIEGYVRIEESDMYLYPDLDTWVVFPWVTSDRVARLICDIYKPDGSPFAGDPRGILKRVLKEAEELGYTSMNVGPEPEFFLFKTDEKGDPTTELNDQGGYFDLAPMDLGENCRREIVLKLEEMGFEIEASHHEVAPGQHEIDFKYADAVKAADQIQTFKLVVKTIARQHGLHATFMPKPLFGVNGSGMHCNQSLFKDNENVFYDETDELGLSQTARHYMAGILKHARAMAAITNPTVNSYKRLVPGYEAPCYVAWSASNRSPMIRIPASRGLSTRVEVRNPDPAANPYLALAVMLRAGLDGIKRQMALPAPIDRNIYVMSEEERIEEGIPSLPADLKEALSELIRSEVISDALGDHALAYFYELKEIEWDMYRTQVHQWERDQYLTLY

[1] = biological target: fluoresceinated Lm GlnR C-tail peptide (L. monocytogenes); assay: fluorescence polarisation; FBI-GS against the corresponding fluoresceinated GlnR C-tail; 25 mM Tris pH 7.5, 100 mM NaCl, 5 mM MgCl2, 20 mM glutamine; three technical repeats
[2] = biological target: Listeria monocytogenes glutamine synthetase (L. monocytogenes); assay: cryo-EM structure; apo GS without peptide, 0.9-1.0 mg/mL, exchanged into Buffer B
[3] = biological target: Listeria monocytogenes glutamine synthetase (L. monocytogenes); assay: cryo-EM structure; GS (0.75-1.0 mg/mL) with 2.5 or 5 mM GlnR C-tail peptide, 30 min at rt; Buffer B (12.5 mM Tris pH 7.5, 20 mM glutamine, 5 mM MgCl2, 150 mM NaCl, 2.5% glycerol, 1 mM BME)
[4] = biological target: Listeria monocytogenes glutamine synthetase, His-tag removed (crystallography) (L. monocytogenes); assay: crystal structure; GS reacted with 5 mM MgCl2, 5 mM ATP and 5 mM Met-Sox (Met-Sox-P-ADP transition state complex); hanging drop, rt
[5] = biological target: fluoresceinated Pp GlnR C-tail peptide (P. polymyxa); assay: fluorescence polarisation; FBI-GS against the corresponding fluoresceinated GlnR C-tail; 25 mM Tris pH 7.5, 100 mM NaCl, 5 mM MgCl2, 20 mM glutamine; three technical repeats
[6] = biological target: Paenibacillus polymyxa glutamine synthetase (P. polymyxa); assay: cryo-EM structure; apo GS without peptide, 0.9-1.0 mg/mL, exchanged into Buffer B
[7] = biological target: Paenibacillus polymyxa glutamine synthetase (P. polymyxa); assay: cryo-EM structure; GS (0.75-1.0 mg/mL) with 2.5 or 5 mM GlnR C-tail peptide, 30 min at rt; Buffer B (12.5 mM Tris pH 7.5, 20 mM glutamine, 5 mM MgCl2, 150 mM NaCl, 2.5% glycerol, 1 mM BME)
[8] = biological target: Paenibacillus polymyxa glutamine synthetase, His-tag removed (crystallography) (P. polymyxa); assay: crystal structure; GS reacted with 5 mM MgCl2, 5 mM ATP and 5 mM Met-Sox (Met-Sox-P-ADP transition state complex); hanging drop, rt
[9] = biological target: Sa GlnR(1-87), His-tag removed (crystallography) (S. aureus) (UniProt Q53687); assay: crystal structure; GlnR(1-87) with a 21-mer operator DNA (protein:DNA 1:1.5); GlnR dimer on the DNA
[10] = biological target: fluoresceinated Sa GlnR C-tail peptide (S. aureus); assay: fluorescence polarisation; FBI-GS against the corresponding fluoresceinated GlnR C-tail; 25 mM Tris pH 7.5, 100 mM NaCl, 5 mM MgCl2, 20 mM glutamine; three technical repeats
[11] = biological target: Staphylococcus aureus glutamine synthetase (S. aureus); assay: cryo-EM structure; apo GS without peptide, 0.9-1.0 mg/mL, exchanged into Buffer B
[12] = biological target: Staphylococcus aureus glutamine synthetase (S. aureus); assay: cryo-EM structure; GS (0.75-1.0 mg/mL) with 2.5 or 5 mM GlnR C-tail peptide, 30 min at rt; Buffer B (12.5 mM Tris pH 7.5, 20 mM glutamine, 5 mM MgCl2, 150 mM NaCl, 2.5% glycerol, 1 mM BME)
[13] = biological target: Staphylococcus aureus glutamine synthetase, His-tag removed (crystallography) (S. aureus); assay: crystal structure; GS reacted with 5 mM MgCl2, 5 mM ATP and 5 mM Met-Sox (Met-Sox-P-ADP transition state complex); hanging drop, rt
[14] = biological target: the molecule itself; assay: crystal structure; GlnR(1-87) with a 21-mer operator DNA (protein:DNA 1:1.5); GlnR dimer on the DNA
[15] = biological target: B3; assay: negative stain EM; Bs GS mixed 1:1 with FL TnrA; 25 mM Tris pH 7.5, 200 mM NaCl, 5% glycerol, 1 mM MgCl2, 5 mM glutamine; 2D class averages; details: both partners purified
[16] = biological target: fluoresceinated Bs GlnR C-tail peptide (B. subtilis); assay: fluorescence polarisation; FBI-GS against the corresponding fluoresceinated GlnR C-tail; 25 mM Tris pH 7.5, 100 mM NaCl, 5 mM MgCl2, 20 mM glutamine; three technical repeats
[17] = biological target: the molecule itself; assay: cryo-EM structure; GS (0.75-1.0 mg/mL) with 2.5 or 5 mM GlnR C-tail peptide, 30 min at rt; Buffer B (12.5 mM Tris pH 7.5, 20 mM glutamine, 5 mM MgCl2, 150 mM NaCl, 2.5% glycerol, 1 mM BME)
[18] = biological target: the molecule itself; assay: negative stain EM; apo Bs GS alone; 25 mM Tris pH 7.5, 200 mM NaCl, 5% glycerol, 1 mM MgCl2; 20-50 μg/mL; 2D class averages
[19] = biological target: B3; assay: cryo-EM structure; GS (0.75-1.0 mg/mL) with 2.5 or 5 mM GlnR C-tail peptide, 30 min at rt; Buffer B (12.5 mM Tris pH 7.5, 20 mM glutamine, 5 mM MgCl2, 150 mM NaCl, 2.5% glycerol, 1 mM BME); details: both partners purified
Sa GlnR(1-87) = biological target: T2, Sa GlnR(1-87) (S. aureus, UniProt Q53687 1-87); assay: FP
T2 chain: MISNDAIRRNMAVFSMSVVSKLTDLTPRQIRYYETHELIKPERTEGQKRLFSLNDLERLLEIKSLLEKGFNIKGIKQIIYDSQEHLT

**Q.** Which “X-ray crystal structure 1.98 Å” value (Pp GS) does the source give for `Nc1ncnc2c1ncn2[C@@H]1O[C@H](COP(=O)(O)OP(=O)(O)O)[C@@H](O)[C@H]1O` [ADP] here?
**A.** The value was “densities for Met-Sox-P and ADP were clearly observed in each enzyme”.

**Q.** What does the source list for “Listeria monocytogenes glutamine synthetase (enzyme)”?
**A.** Kd [1]: 27.2 µM; stoichiometry N [2]: 12; stoichiometry N [3]: 14

**Q.** How did the stoichiometry N [4] turn out when “Listeria monocytogenes glutamine synthetase, His-tag removed (crystallography) (enzyme)” was run?
**A.** The stoichiometry N was 12.

**Q.** How did the Kd [5] turn out when “Paenibacillus polymyxa glutamine synthetase (enzyme)” was run?
**A.** The Kd was 18.7 µM.

**Q.** What about the stoichiometry N [6] of the same molecule?
**A.** The stoichiometry N was 12 and 14.

**Q.** What about the stoichiometry N [7] of the same molecule?
**A.** The stoichiometry N was 14 and 12.

**Q.** With “Paenibacillus polymyxa glutamine synthetase, His-tag removed (crystallography) (enzyme)” as the molecule, how does the stoichiometry N [8] read?
**A.** Its stoichiometry N is 12.

**Q.** How did the stoichiometry N [9] turn out when “Sa GlnR(1-87), His-tag removed (crystallography) (from UniProt Q53687 1-87) (domain or fragment)” was run?
**A.** The stoichiometry N was 2.

**Q.** For “Staphylococcus aureus glutamine synthetase (enzyme)”, which Kd [10] is on record?
**A.** Its Kd is 7.2 µM.

**Q.** And the stoichiometry N [11]?
**A.** The stoichiometry N was 12.

**Q.** What about the stoichiometry N [12] of the same molecule?
**A.** Its stoichiometry N is 12.

**Q.** For “Staphylococcus aureus glutamine synthetase, His-tag removed (crystallography) (enzyme)”, which stoichiometry N [13] is on record?
**A.** The stoichiometry N was 12.

**Q.** How did the “stoichiometry N” value [14] turn out when B1 was run?
**A.** Its value is 2.

**Q.** Does B2 bind [15]?
**A.** Result: binds

**Q.** Which results are given for B3?
**A.** Kd [16]: 4.2 µM; stoichiometry N [17]: 14; stoichiometry N [18]: 12

**Q.** Does B4 bind [19]?
**A.** Result: binds

**Q.** fluorescein-KPIGETLPINRGDLSRFIK [fluoresceinated Sa GlnR C-tail peptide] was tested. Which Kd (Sa GlnR(1-87)) did it give?
**A.** The Kd was 56 µM.
